Results on 4 molecules are retold here after patent publication US10358467B2, “Therapeutic targets for cancer progression” (The Regents of the University of California, priority 2015, dated 2019).

One test concerns the target T1, GST-Gαi3 (Rattus norvegicus, UniProt P08753).
T1 construct: made in house; host or cells: E. coli BL21 (DE3)
Description: Competition with His-DAPLE-CT for binding to GST-Gαi3 (pulldown). The method, then: Purified GST-Gαi3 or GST alone (5 μg) were immobilized on glutathione-Sepharose beads and incubated with binding buffer [50 mM Tris-HCl (pH 7.4), 100 mM NaCl, 0.4% (v:v) Nonidet P-40, 10 mM MgCl2, 5 mM EDTA, 30 μM GDP, 2 mM DTT, protease inhibitor mixture] for 90 min at room temperature as described before (Garcia-Marcos et al, 2011a; Ghosh et al, 2010; Ghosh et al, 2008; Lin et al, 2011). Lysates (˜250 μg) of Cos7 cells expressing appropriate myc-DAPLE constructs or purified His-DAPLE-CT (aa 1650-2028) protein (3 μg) were added to each tube, and binding reactions were carried out for 4 h at 4° C. with constant tumbling in binding buffer [50 mM Tris-HCl (pH 7.4), 100 mM NaCl, 0.4% (v:v) Nonidet P-40, 10 mM MgCl2, 5 mM EDTA, 30 μM GDP, 2 mM DTT]. Beads were washed (4×) with 1 mL of wash buffer [4.3 mM Na2HPO4, 1.4 mM KH2PO4 (pH 7.4), 137 mM NaCl, 2.7 mM KCl, 0.1% (v:v) Tween 20, 10 mM MgCl2, 5 mM EDTA, 30 μM GDP, 2 mM DTT] and boiled in Laemmli's sample buffer. In some experiments the ‘active’ conformation of the G protein was stabilized by replacing GDP in the binding and wash buffers with 30 μM GTPγS or a mixture of 30 μM GDP/30 μM AlCl3/10 mM NaF. Immunoblot quantification was performed by infrared imaging following the manufacturer's protocols using an Odyssey imaging system (Li-Cor Biosciences).

The next test deals with DLD1 cells. Description: Anchorage-dependent tumor growth assay. As to conditions: DLD1 cells stably expressing constructs, 2-3 weeks. It counts as cell-based, human. The method, then:
Anchorage-dependent growth was monitored on solid (plastic) surface as described previously (Franken et al, 2006). Briefly, anchorage-dependent growth was monitored on solid (plastic) surface. Approximately ˜1000 DLD1 cells stably expressing various DAPLE constructs were plated in 6-well plates and incubated in 5% CO2 at 37° C. for ˜2 weeks in 0.2% FBS growth media. Colonies were then stained with 0.005% crystal violet for 1 h. The remaining DLD1 cells were lysed and analyzed by immunoblotting to confirm DAPLE construct expression. Each experiment was analyzed in triplicate.

For test [1], the system named is β-Catenin/TCF/LEF pathway in DLD1 7TGP cells. Description: β-Catenin reporter assay (7TGP). It counts as cell-based, human. As to conditions: stable expression, starved and stimulated with Wnt5a, versus vector control. The method, then: These assays were carried out using the well-established reporter 7×Tcf-eGFP (7TGP) (Fuerer & Nusse, 2010). Stable cells lines expressing this reporter were generated by lentiviral transduction and subsequent selection using standard procedures. Lentiviral infection and selection were performed according to standard procedures. Briefly, 10 cm plates DLD1 cells at 70% confluency were incubated with media containing 8 μg/mL polybrene and 10 μl of lentivirus for 6 h. After 24 hours post infection, selection of puromycin-resistant clones was initiated by adding the antibiotic at 2 μg/ml final concentration. The resultant DLD1-7TGP stable cells were subsequently transfected with various myc-DAPLE constructs and selected for G418 resistance as described earlier in methods. The DLD1-7TGP cells stably expressing myc-DAPLE were incubated overnight at 0.2% FBS, analyzed by fluorescence microscopy, and photographed prior to lysis. Whole cell lysates samples were then boiled in Laemmli's sample buffer and GFP protein expression was monitored by immunoblotting.
Background: Reporter assays use an easily measured gene product as a stand-in for the process of interest.

In the next test the test system is NIH3T3 cells. Description: 3D spheroid matrigel invasion assay. In kind it is cell-based. As to conditions: in response to Wnt5a. The method, then: NIH3T3 cell invasion assay in 3D culture was performed according to the manufacturer's protocol (Trevigen, Cultrex 3D Spheroid BME Cell Invasion Assay, catalog #3500-096-K). Briefly, non-invasive NIH3T3 cells (˜3000 cells) transfected with empty vector (control) or myc-DAPLEconstructs were incubated first in the Spheroid Formation extracellular matrix (ECM) containing 0.2% FBS for 3 days. Invasion matrix was then added and layered on top with media containing FBS. […] Photographs were analyzed and pseudocolored by Image J to reflect cell density.

Positions count from the first letter of the chain named. Names and notes keep the numbering of the source.

T1 sequence (P08753 whole entry): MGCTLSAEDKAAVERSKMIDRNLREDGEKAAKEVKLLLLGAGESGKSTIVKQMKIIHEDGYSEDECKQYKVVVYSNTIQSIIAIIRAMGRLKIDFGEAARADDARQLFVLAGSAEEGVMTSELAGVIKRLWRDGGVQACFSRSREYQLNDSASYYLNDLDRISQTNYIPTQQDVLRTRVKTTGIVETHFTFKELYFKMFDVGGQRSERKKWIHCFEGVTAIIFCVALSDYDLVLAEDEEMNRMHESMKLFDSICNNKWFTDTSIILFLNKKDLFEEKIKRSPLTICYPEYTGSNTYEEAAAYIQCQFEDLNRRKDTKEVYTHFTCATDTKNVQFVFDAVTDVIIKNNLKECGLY

As for “KB-752: synthetic GEF peptide similar to the GBA motif (SRVTWYDFLMEDTKSR) [reference compound]”, the “competition with His-DAPLE-CT for binding to GST-Gαi3” value with GST-Gαi3 is recorded as “competed”.

B1: His-GIV-CT: His-GIV-CT (aa 1660-1870, containing its GEF motif) (protein)
chain: ISETLESRHHKIKTGSPGSEVVTLQQFLEESNKLTSVQIKSSSQENLLDEVMKSLSVSSDFLGKDKPVSCGLARSVSGKTPGDFYDRRTTKPEFLRPGPRKTEDTYFISSAGKPTPGTQGKIKLVKESSLSRQSKDSNPYATLPRASSVISTAEGTTRRTSIHDFLTKDSRLPISVDSPPAAADSNTTAASNVDKVQESRNSKSRSREQQS
modifications: left off: small tags and cut ends
Regarding B1, the “competition with His-DAPLE-CT for binding to GST-Gαi3” value in the test with GST-Gαi3 is given as “competed”.

B2: DAPLE-V2-WT: short isoform of DAPLE (SEQ ID NO: 23, 552 aa) expressed in cells (protein, listed as Homo sapiens)
chain: MSVLSPGDLKPKRGSPHRGSLDRTDASTDLAMRSWPSELGSRTCSTSATTTAPSNSTPIARHPGRTKGYNSDDNLCEPSLEFEVPNHRQYVSRPSSLESSRNTSSNSSPLNLKGSSEQLHGRSESFSSEDLIPSRDLATLPREASTPGRNALGRHEYPLPRNGPLPQEGAQKRGTAPPYVGVRPCSASPSSEMVTLEEFLEESNRSSPTHDTPSCRDDLLSDYFRKASDPPAIGGQPGPPAKKEGAKMPTNFVAPTVKMAAPTSEGRPLKPGQYVKPNFRLTEAEAPPSVAPRQAQPPQSLSLGRPRQAPVPPASHAPASRSASLSRAFSLASADLLRASGPEACKQESPQKLGAPEALGGRETGSHTLQSPAPPSSHSLARERTPLVGKAGSSCQGPGPRSRPLDTRRFSLAPPKEERLAPLHQSATAPAIATAGAGAAAAGSGSNSQLLHFSPAAAPAARTKPKAPPRSGEVATITPVRAGLSLSEGDGVPGQGCSEGLPAKSPGRSPDLAPHLGRALEDCSRGSVSKSSPASPEPGGDPQTVWYEYGCV
modifications: myc tag
With B2, the “adherent colonies per well (tumor growth)” value in the test on DLD1 cells was “can inhibit tumor growth”. Further, in test [1], the “eGFP signal (Wnt transcriptional activity)” value was “showed inhibition of eGFP”. Further, the “invasion of matrigel by spheroids” value in the test on NIH3T3 cells is on record as “Neither the WT nor the FA mutant of DAPLE-V2 could trigger invasion”.

B3: DAPLE-V2-FA: DAPLE-V2 with F194A mutation disrupting Gαi3 binding, expressed in cells (protein)
chain: B2 chain with F199A
modifications: left off: small tags and cut ends
With B3, the “eGFP signal (Wnt transcriptional activity)” value in test [1] is on record as “not”. The “invasion of matrigel by spheroids” value in the test on NIH3T3 cells is recorded as “Neither the WT nor the FA mutant of DAPLE-V2 could trigger invasion”.
